Experimental data reported in patent EP2060581A1 (Chemotherapeutisches Forschungsinstitut Georg-Speyer-Haus, dated 2009).

Molecular target: T1, ErbB2 receptor (UniProt P04626 23-1255)
T1 construct: Whole endogenous receptor from cell extracts, immunoprecipitated with an ErbB2 antibody
Test: co-immunoprecipitation from SK-BR3 membrane extracts with an ErbB2 antibody, Western blot with Flag antibody

B1: mt bTrx-All-7 (designed binder)
chain: MSDKIIHLTDDSFDTDVLKADGAILVDFWAEWSGPPLNFYRHGFLPNAVMASMLEVGPWFELLGPCGLAGHPLSSLRIGPSKMIAPILDEIADEYQGKLTVAKLNIDQNPGTAPKYGIRGIPTLLLFKNGEVAATKVGALSKGQLKEFLDANLA
notes: Purified recombinant protein; Largely monomeric; also called All-7 aptamer in mutated bTrx (mt); All-7 in the mutated scaffold; not shown: Flag-tag, one or two His-tags and a 9R protein transduction domain
fold increase in binding against wt bTrx-All-7: 2.4 fold
